Experimental data taken from CN115490771A (HEFEI TIANGANG IMMUNOLOGY PHARMACEUTICAL CO LTD, dated 2022).

Columns and labels:
[1] = molecular target: T1, CD155 on tumour cells (NCI-H1299, NCI-H358, HepG2) (UniProt P15151 21-417, limits assumed); assay: flow cytometry on NCI-H1299 lung cancer cells, Alexa-647 anti-human Fc secondary antibody
T1 construct: whole, on cells; also called 表达CD155的肺癌NCI-H1299细胞; NCI-H358细胞
T1 sequence (looked up): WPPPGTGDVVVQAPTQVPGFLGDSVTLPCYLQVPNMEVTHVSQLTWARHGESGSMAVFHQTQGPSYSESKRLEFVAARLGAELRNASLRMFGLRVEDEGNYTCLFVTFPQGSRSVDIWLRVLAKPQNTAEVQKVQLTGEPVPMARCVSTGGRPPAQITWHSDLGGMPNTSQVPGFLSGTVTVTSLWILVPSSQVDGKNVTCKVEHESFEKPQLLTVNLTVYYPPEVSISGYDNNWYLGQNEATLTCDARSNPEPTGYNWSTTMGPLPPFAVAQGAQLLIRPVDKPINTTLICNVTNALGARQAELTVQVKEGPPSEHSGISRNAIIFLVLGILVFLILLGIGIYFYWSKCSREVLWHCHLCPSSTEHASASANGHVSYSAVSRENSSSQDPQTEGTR

[2] = molecular target: T2, CD155蛋白 on CHO-K1-CD155 cells (Homo sapiens (Human), UniProt P15151 21-417); assay: flow cytometry on CHO-K1-CD155 cells, Alexa-647 anti-human Fc secondary antibody
T2 construct: also called CHO-K1-CD155细胞
T2 sequence: T1 sequence (looked up)

B1: 双特异抗体 CD3×TIGIT extra (重组双特异抗体, 实施例1) (bispecific antibody, IgG1)
chain 1: EVQLLESGGGLVQPGGSLKLSCAASGFTFNTYAMNWVRQAPGKGLEWVARIRSKYNNYATYYADSVKDRFTISRDDSKNTAYLQMNNLKTEDTAVYYCVRHGNFGNSYVSWFAYWGQGTLVTVSSGGGGSGGGGSGGGGSELVVTQEPSLTVSPGGTVTLTCRSSTGAVTTSNYANWVQQKPGQAPRGLIGGTNKRAPGTPARFSGSLLGGKAALTLSGVQPEDEAEYYCALWYSNLWVFGGGTKLTVLGGGGSPKSCDKTHTCPPCPAPEAAGGPSVFLFPPKPKDTLMISRTPEVTCVVVDVSHEDPEVKFNWYVDGVEVHNAKTKPREEQYNSTYRVVSVLTVLHQDWLNGKEYKCKVSNKALPAPIEKTISKAKGQPREPQVYTLPPSREEMTKNQVSLWCLVKGFYPSDIAVEWESNGQPENNYKTTPPVLDSDGSFFLYSKLTVDKSRWQQGNVFSCSVMHEALHNHYTQKSLSLSPGK
chain 2: MMTGTIETTGNISAEKGGSIILQCHLSSTTAQVTQVNWEQQDQLLAICNADLGWHISPSFKDRVAPGPGLGLTLQSLTVNDTGEYFCIYHTYPDGTYTGRIFLEVLESSVAEHGARFQIPGGGGSPKSCDKTHTCPPCPAPEAAGGPSVFLFPPKPKDTLMISRTPEVTCVVVDVSHEDPEVKFNWYVDGVEVHNAKTKPREEQYNSTYRVVSVLTVLHQDWLNGKEYKCKVSNKALPAPIEKTISKAKGQPREPQVYTLPPSREEMTKNQVSLSCAVKGFYPSDIAVEWESNGQPENNYKTTPPVLDSDGSFFLVSKLTVDKSRWQQGNVFSCSVMHEALHNHYTQKSLSLSPGK
notes: Two-chain heterodimer joined through knob-into-hole IgG1 Fc regions; also called 双特异性抗体; 重组抗体
binding result [1]: binds | binding result [2]: binds
